These results are taken from patent US20250144222A1, “Bifunctional Compounds Targeting the Cation-Independent Mannose 6- Phosphate Receptor” (NANOMEDSYN, priority 2022, published 2025).

Data set [1] is described as follows: Pharmacokinetic profile in mice after single i.v. bolus. The data set is classed as in vivo, C57BL/6J mice. To be noted: single i.v. bolus 4 mg/kg, 21 days. The procedure:
Mice were weighed before injection and throughout the experiment to monitor their health. Blood samples taken at 4 and 1, 2, 3, 7, 10, 14, 17 and 21 days post-injection were collected in tubes containing heparin and centrifuged at 3,000 g for 15 min, and the plasma was stored at −20° C. until measurement. Mice were sacrificed 21 days after injection.
The therapeutic antibody was detected using an HRP-conjugated anti-human IgG antibody specific for the Fc fragment, which was then quantified by a colorimetric assay with the OPD substrate and absorbance measure at 450 nm.

In the next data set the target is T1, b-CI-M6PR (UniProt P08169).
T1 construct: fused on or other part: Chemical biotin label (biotin N-hydroxysuccinimide) for streptavidin-peroxidase detection; no fused protein
Description: Competitive binding of biotinylated CI-M6PR to adsorbed pentamannose 6-phosphate. To be noted: competitive assay with pentamannose 6-phosphate ligand; read-out: Affinity for b-CI-M6PR (IC50) (converted). The procedure:
Briefly, CI-M6PR, purified on a phosphomannane-sepharose affinity column, was biotinylated with biotin N-hydroxysuccinimide. […] The b-CI-M6PR bound to adsorbed PMP was then determined using streptavidin conjugated to the peroxidase and its substrate, o-phenylenediamine dihydrochloride (OPD), by optical density measurements. The 100% value corresponds to the concentration of b-CI-M6PR bound to PMP adsorbed in the absence of a competitor.

In the case of infliximab [mAb1, reference compound], the adverse clinical events result in data set [1] is recorded as “No adverse clinical events”.

Turning to adalimumab [mAb2, reference compound], the adverse clinical events result in data set [1] was “No adverse clinical events”.

The term IC50 denotes the concentration that gives 50% inhibition. As for `O=C[C@@H](O)[C@@H](O)[C@H](O)[C@H](O)COP(=O)(O)O` [M6P, mannose 6-phosphate], the half-inhibitory concentration (IC50) at b-CI-M6PR was 20 µM.
